Assay results: paper PMC4963197, “Phosphorylation acts positively and negatively to regulate MRTF-A subcellular localisation and activity” (eLife, 2016)

Biological target: G-actin (UniProt P68135)
Assay: size exclusion chromatography

- other: actins (apparent stoichiometry of G-actin binding): 2.2
Substance: MRTF-A(67–199) L74A; L78A
